Laboratory results taken from article PMC11697048, “Ce6-GFFY is a novel photosensitizer for colorectal cancer therapy” (Genes & Diseases, 2024).

Legend:
[1] = system: CT26 cells; test: ROS detection with DCFH-DA; type: cell-based, mouse; settings: CT26, 5 μM, 1 h, 660 nm laser 1 min 0.02 W/cm^2, confocal laser scanning microscopy
Method: (§1) For cell endocytosis detection, CT26 and HCT116 cells were treated with Ce6 molecules (5 μM) or Ce6-GFFY (5 μM) at 37 °C for 1 h. For ROS detection, cells were treated with Ce6 molecules (5 μM), GFFY peptide (5 μM), or Ce6-GFFY (5 μM) at 37 °C for 1 h and then treated with or without laser irradiation for 1 min (660 nm, 0.02 W/cm^2). Afterward, the cells were collected and stained with DCFH-DA (1:5000) at 37 °C for 20 min. For cell death analysis, cells were treated with Ce6 molecules, GFFY peptide, or Ce6-GFFY (CT26, 10 μM; HCT116, 5 μM) at 37 °C for 1 h and then treated with or without laser irradiation for 1 min (660 nm, 0.02 W/cm^2). After incubation at 37 °C for 24 h, the cells were collected and stained with propidium iodide (1:100) and annexin V-FITC (1:200). For examination of CRT expression, cells were treated with Ce6 molecules, GFFY peptide, or Ce6-GFFY (CT26, 10 μM; HCT116, 5 μM) at 37 °C for 1 h and then treated with or without laser irradiation for 1 min (660 nm, 0.02 W/cm^2). After incubation at 37 °C for 8 h, the cells were collected and blocked with 5% bull serum albumin for 10 min and then incubated with a primary anti-calreticulin antibody (#ab92516, Abcam), followed by the incubation of an Alexa Fluor 488-conjugated secondary antibody (#406416, BioLegend). […]

[2] = system: HCT116 cells; test: ROS detection with DCFH-DA; type: cell-based, human; settings: HCT116, 5 μM, 1 h, 660 nm laser 1 min 0.02 W/cm^2, confocal laser scanning microscopy
Method: as §1

[3] = In vivo imaging, kinetics of Ce6 fluorescence in mice; set-up: species or system mouse
Method: (§2) For in vivo imaging, Ce6-GFFY (5 mg/kg) and Ce6 molecules (2.5 mg/kg) were injected into mice burdened with or without xenograft tumors through the tail vein (100 μL/mouse), and the fluorescence intensity of mice or main tissues such as brain, heart, liver, spleen, lung, kidney, intestine, and stomach was detected and analyzed with an IVIS spectrum imaging system (PerkinElmer, MA, USA). All animal experiments were approved by The Institutional Animal Care and Use Committee at Sun Yat-sen Cancer Center.

[4] = Toxicity evaluation in mice (blood routine, liver and kidney function, H&E pathology); type: in vivo, mouse; settings: 5 mg/kg i.v. plus laser irradiation
Text: Four-to-six-week-old BALB/c mice and BALB/c nude mice were purchased from Guangdong Medical Laboratory Animal Center (Guangzhou, China). All mice were maintained under standard conditions and treated according to institutional guidelines for animal care. For primary tumor therapy, 2 × 10^5 CT26 cells were suspended in a 1:1 mixture of PBS and matrigel and subcutaneously injected into the flanks of the mice. When the volume of tumors reached 70 mm^3, the mice were randomized into treatment and control groups. The treatment groups received tail intravenous injections of GFFY (2.5 mg/kg), Ce6 (2.5 mg/kg), or Ce6-GFFY (5 mg/kg), and the control group received PBS treatment, both groups were treated with once 660 nm laser irradiation for 8 min (1 min on, 1 min off; 4 cycles) on the tumor region at a power of 0.2 W/cm^2. Tumor volume and mouse body weight were recorded every three days, and tumor tissues were collected and weighed at the end of treatment. Main organs such as the heart, liver, spleen, lung, and kidney were collected for pathological analysis and the blood was collected for blood routine examination.

[5] = system: HCT116 cells; test: Cell endocytosis (uptake) detection by Ce6 fluorescence; type: cell-based, human; settings: HCT116, 5 μM, 37 °C, 1 h
Method: as §1

[6] = system: CT26 cells; test: as above; type: cell-based, mouse; settings: CT26, 5 μM, 37 °C, 1 h
Method: as §1

[7] = system: CT26-derived tumors; test: In vivo imaging, tumor targeting in mice bearing CT26-derived tumors; set-up: species or system mouse; settings: tail vein, 5 mg/kg, n = 3
Method: as §2

[8] = system: CT26 cells; test: CCK-8 assay; type: cell-based, mouse; settings: drug 1 h, 660 nm laser 1 min at 0.02 W/cm^2, then 24 h at 37 °C, read-out: IC50 (proliferation)
Method: (§3) Cell viability was measured using a CCK-8 cell counting kit (Beyotime Biotechnology, Shanghai, China). 7000 cells were seeded in 96-well plates and treated with drugs at various concentrations for 1 h and then treated with or without laser irradiation for 1 min (660 nm, 0.02 W/cm^2), followed by incubation at 37 °C for 24 h. After the addition of the CCK-8 reagent, the cells were continually incubated at 37 °C for 3 h before being detected by a microplate reader (TECAN, Victoria, Austria).

[9] = system: HCT116 cells; test: CCK-8 assay; type: cell-based, human; settings: drug 1 h, 660 nm laser 1 min at 0.02 W/cm^2, then 24 h at 37 °C, read-out: IC50 (proliferation)
Method: as §3

[10] = confocal laser scanning microscopy, versus Ce6 molecules
[11] = flow cytometry, Ce6 fluorescence

Row | SMILES | ROS production upon 660 nm laser irradiation [1] | ROS production upon 660 nm laser irradiation [2] | time after injection by which almost cleared ([3]; mice, tail vein injection, 2.5 mg/kg, living imaging of Ce6 luminescence, n = 5) [h] | half-life in mice ([3]; mice, tail vein injection, Ce6-GFFY 5 mg/kg, Ce6 2.5 mg/kg, from Ce6 luminescence changes, IVIS imaging, n = 5) [h] | hepatic and renal function (AST, ALT, BUN) ([4]; end of treatment, n = 5) | murine blood routine analysis (inflammatory responses) ([4]; end of treatment, n = 5) | histopathological analysis of heart, liver, spleen, lung, and kidney (H&E) ([4]; n = 4) | cellular Ce6 fluorescence [5, 10] | cellular uptake (Ce6 positive cells) [5, 11] | cellular Ce6 fluorescence [6, 10] | cellular uptake (Ce6 positive cells) [6, 11] | accumulation in tumor regions after injection ([7]; living imaging) | distribution in tumor and normal tissues after 24 h ([7]; organs and tumors imaged at 24 h) | IC50 [8] [µM] | IC50 [9] [µM] | retention time in the mice ([3]; mouse, in vivo, 5 mg/kg)
1 | C=Cc1c(C)c2cc3nc(c(CC(=O)O)c4[nH]c(cc5nc(cc1[nH]2)C(C)=C5CC)c(C)c4C(=O)O)[C@@H](CCC(=O)O)[C@@H]3C [Ce6, chlorin e6] | minimal | minimal | ≤ 12 | 3 | – | – | – | – | – | – | – | – | – | – | – | –
2 | C=Cc1c(C)c2cc3nc(c(CC(=O)NCC(=O)N[C@@H](Cc4ccccc4)C(=O)N[C@@H](Cc4ccccc4)C(=O)N[C@@H](Cc4ccc(O)cc4)C(=O)O)c4[nH]c(cc5nc(cc1[nH]2)C(C)=C5CC)c(C)c4C(=O)O)[C@@H](CCC(=O)O)[C@@H]3C [Ce6-GFFY] | – | – | – | – | did not exert an impact on the hepatic and renal function | did not elicit any significant inflammatory responses | no apparent toxicity | noticeable aggregation of Ce6 fluorescence | much higher than Ce6 molecules | noticeable aggregation of Ce6 fluorescence | much higher than Ce6 molecules | accumulated rapidly in the tumor regions | stable aggregation in tumor tissues | 6.27 | 5.3 | over 48 h
